Measurements published in patent US6638518B1 (priority 1999, dated 2003).
Where two headings read alike, the source gives them in different places.

Key:
[1] = test system: BCG attachment to fibronectin; format: binding, M. bovis BCG; conditions: recombinant FAP 1 μM or peptide, 90 minutes, 37° C.; FIG. 4
human fibronectin = target: T1, human fibronectin (Homo sapiens, UniProt P02751); assay: Attachment of FAP to fibronectin (biotinylated fusion proteins on coated wells); format: binding
T1 construct: purchased Collaborative Biomedical Products, Bedford, Mass
T1 sequence (P02751 32-2477): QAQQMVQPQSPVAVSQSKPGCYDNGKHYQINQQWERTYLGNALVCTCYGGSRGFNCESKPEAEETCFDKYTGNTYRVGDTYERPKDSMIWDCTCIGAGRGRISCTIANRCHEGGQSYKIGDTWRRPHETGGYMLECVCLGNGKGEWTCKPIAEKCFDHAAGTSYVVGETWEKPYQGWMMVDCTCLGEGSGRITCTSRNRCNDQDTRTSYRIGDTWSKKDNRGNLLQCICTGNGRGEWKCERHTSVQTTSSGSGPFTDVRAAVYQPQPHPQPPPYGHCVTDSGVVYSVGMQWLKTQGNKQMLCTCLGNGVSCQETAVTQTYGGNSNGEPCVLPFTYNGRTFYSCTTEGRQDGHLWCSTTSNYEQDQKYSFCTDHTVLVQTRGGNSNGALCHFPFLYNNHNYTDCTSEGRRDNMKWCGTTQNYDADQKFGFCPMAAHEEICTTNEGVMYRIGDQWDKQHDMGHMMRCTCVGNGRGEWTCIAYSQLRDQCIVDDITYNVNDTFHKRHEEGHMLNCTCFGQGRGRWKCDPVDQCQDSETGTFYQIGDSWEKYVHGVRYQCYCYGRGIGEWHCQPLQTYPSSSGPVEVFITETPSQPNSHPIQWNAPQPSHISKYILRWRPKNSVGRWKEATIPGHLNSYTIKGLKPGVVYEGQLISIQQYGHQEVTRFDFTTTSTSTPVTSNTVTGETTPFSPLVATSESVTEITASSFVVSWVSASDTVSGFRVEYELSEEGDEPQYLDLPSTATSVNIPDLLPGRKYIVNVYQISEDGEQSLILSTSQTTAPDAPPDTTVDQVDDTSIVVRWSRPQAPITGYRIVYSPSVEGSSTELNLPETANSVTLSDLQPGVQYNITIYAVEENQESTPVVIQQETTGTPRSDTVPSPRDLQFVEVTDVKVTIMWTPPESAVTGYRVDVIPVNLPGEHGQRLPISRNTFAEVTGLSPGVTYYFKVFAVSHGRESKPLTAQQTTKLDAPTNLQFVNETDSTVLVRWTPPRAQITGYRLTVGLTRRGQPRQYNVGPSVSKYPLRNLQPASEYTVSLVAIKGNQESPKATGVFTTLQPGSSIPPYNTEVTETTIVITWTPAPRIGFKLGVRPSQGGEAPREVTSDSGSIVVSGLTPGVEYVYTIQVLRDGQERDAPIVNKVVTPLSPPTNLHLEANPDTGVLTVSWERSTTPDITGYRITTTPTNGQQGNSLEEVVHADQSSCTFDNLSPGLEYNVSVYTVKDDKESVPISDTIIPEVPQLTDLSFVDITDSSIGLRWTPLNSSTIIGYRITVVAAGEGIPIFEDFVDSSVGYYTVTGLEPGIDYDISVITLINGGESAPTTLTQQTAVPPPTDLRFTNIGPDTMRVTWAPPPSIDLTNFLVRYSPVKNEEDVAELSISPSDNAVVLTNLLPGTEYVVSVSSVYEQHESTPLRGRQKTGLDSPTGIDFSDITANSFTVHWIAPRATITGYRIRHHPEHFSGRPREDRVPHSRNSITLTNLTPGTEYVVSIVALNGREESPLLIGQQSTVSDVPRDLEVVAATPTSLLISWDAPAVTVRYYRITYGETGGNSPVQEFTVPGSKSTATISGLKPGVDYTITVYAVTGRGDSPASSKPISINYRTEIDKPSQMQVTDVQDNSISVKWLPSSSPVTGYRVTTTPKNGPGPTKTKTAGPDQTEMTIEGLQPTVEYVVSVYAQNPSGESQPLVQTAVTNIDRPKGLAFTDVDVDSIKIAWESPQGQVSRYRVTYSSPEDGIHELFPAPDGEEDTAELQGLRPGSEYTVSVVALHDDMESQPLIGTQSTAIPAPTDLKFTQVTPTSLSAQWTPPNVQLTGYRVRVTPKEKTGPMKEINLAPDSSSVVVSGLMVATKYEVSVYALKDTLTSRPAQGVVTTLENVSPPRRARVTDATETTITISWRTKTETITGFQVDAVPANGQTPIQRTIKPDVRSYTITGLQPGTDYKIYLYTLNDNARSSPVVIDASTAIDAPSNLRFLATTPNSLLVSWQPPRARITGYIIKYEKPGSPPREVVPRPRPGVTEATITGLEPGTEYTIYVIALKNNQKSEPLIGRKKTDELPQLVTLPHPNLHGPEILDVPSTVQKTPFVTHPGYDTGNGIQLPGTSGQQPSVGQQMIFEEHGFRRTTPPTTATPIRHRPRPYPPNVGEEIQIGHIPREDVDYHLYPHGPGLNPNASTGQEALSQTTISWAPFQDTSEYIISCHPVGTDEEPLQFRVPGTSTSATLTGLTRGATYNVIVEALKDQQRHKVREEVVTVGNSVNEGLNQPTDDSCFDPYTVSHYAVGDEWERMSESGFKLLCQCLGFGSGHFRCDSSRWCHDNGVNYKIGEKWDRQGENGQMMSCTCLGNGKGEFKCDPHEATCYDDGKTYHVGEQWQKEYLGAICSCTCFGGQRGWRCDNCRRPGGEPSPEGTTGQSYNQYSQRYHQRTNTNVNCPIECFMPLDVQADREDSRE
Experimental: Ninety-six-well Immulon II plates (Dynatech, Chantilly, Va.) were coated with 1 μg of human fibronectin (Collaborative Biomedical Products, Bedford, Mass.) or bovine serum albumin (BSA) at 37° C. overnight. Recombinant FAP-B, FAP-A, and β-galactosidase fusion proteins were produced in the pTrcHis vector and purified as described for FAP-B, were biotinylated with NHS-LC-Biotin (Pierce, Rockford, Ill.). Biotinylated FAP-B, FAP-A and β-galactasidase fusion proteins (0.5 μg and 2 μg) were added to wells coated with fibronectin or BSA and incubated at 25° C. for 1 hour. The bound fusion proteins were detected with streptavidin-HRP (1:10,000 dilution; Pierce) and o-phenylenediamine dihydrochloride (Sigma) substrate.

Which “inhibition of BCG attachment to fibronectin” value [1] does the source give for “FAP-A269-292: Synthesized peptide of amino acids 269-292 of FAP-A, a conserved fibronectin binding region (GNRQRWFVVWLGTSNDPVDKVAAK)” here?
Its value is “inhibit BCG attachment to fibronectin in an equivalent manner”.

“β-galactosidase: Control recombinant β-galactosidase fusion protein produced in the pTrcHis vector” was tested. Which “binding to fibronectin-coated wells” value (human fibronectin) did it give?
The value was “did not bind to fibronectin”.

B1: FAP-A: Fibronectin attachment protein produced by M. avium (SEQ ID NO:5, GenBank AAB50543), recombinant fusion protein (protein, listed as Mycobacterium avium)
chain: MDQVEATSTRRKGLWTTLAITTVSGASAVVIALPETSHADPEVPTPVPPSTATTPHPRRRRIPGQPADNAQAGAPAPAPNGQQRPPRRRRMIPTRAPPPAGAPPNGAPPAAPNGAPPPPVDPNAPPPPPADPNAGRIPNSYVLPAGWVESDASHLDYGSALLSKVTGPPPMPDQPPPVANDTRIVMGRVDQKLYASAEANNAKAAVGLGSDMGEFFMPYPGTRINQDSTPLNGANGSTGSASYYEVKFSDASKPNGQIWTGVIGSANAGNRQRWFVVWLGTSNDPVDKVAAKALAESIQAWTPPPAPPAAPGGPGAPAPGAPGAPAPGAPAAPGVTAPAAPAPAAPGAPAAPGAPAPEPGQAPAVEVSPTPTPTPQQTLSA
modifications: recombinant fusion partner
How did the “binding to fibronectin-coated wells” value (human fibronectin; biotinylated fusion proteins 0.5 μg and 2 μg, 25° C., 1 hour, FIG. 2) turn out when B1 was run?
Its value is “bound to wells coated with fibronectin”.

And the “inhibition of BCG attachment to fibronectin” value [1]?
Its value is “inhibit BCG attachment to fibronectin in an equivalent manner”.
